This note sets out measurements from paper PMC10810282.

Test [1] concerns the target separate RPA2 WH-domain (pTYB12-WH), recombinant. The experiment in a line: MST; 100 nM target labelled on cysteines (RED-…), concentration gradient of unlabelled ligand; Monolith NT.115, premium coated capillaries, 40% MST power; 50 mM Tris-HCl pH 7.5, 100 mM NaCl, 1 mM DTT, 0.05% Tween-20, 0.5 mg/ml BSA; KD from at least three runs.
Test [2] deals with mouse UNG2 wild type, recombinant (mUNG2-pET28a) (mouse) (UniProt P97931). Described as above.

Broadly, the Kd is the concentration at which binding is half-saturated.

Consider “mouse UNG2 wild type, recombinant (mUNG2-pET28a) (from UniProt P97931-1 1-306) (domain or fragment)”, for which the Kd in test [1] was 860 nM.

Turning to “separate RPA2 WH-domain (pTYB12-WH), recombinant”, in test [2], the Kd stood at 1260 nM.
